Data published in article PMC5952258 (ACS Infectious Diseases, 2018).

Target: the molecule itself
Assay: crystal structure; sitting drop vapor diffusion at 18 °C; 25% (w/v) PEG 3350, 0.1 M Bis-Tris pH 5.6, 0.1 M ammonium sulfate; resolved to 2.0 Å

B1: Rv2466c C22S mutant (enzyme)
chain: not shown
B1: binds.
